Test results published in the RNAGym collection of RNA variant scans (doi:10.7554/elife.80360).

B1: Hairpin Ribozyme (parent)
chain: GUCCUCUUUCACGUGCGCGUGAAAGAGAGAAGUGAACCAGAGAAACACACGUUGUGGUAUAUUACCUGGUA

Variants of: B1
Assay: self-cleavage, relative activity (ratio to wild type); higher = more cleavage; co-transcriptional

In order of rising self-cleavage:
1. U7G A26C  0.0432
2. U7G A59C  0.0534
3. U7C A43G  0.0623
4. U7A U62G  0.0626
5. U7A A30U  0.0668
6. U7G G56U  0.0768
7. U7C A30G  0.0858
8. U7C A47U  0.0995
9. C6U G27C  0.106
10. U8A C48G  0.107
11. U7A C46G  0.108
12. U8A C48A  0.111
13. U7G U33C  0.113
14. C6G G42U  0.113
15. C6G U62C  0.116
16. C6U C48G  0.116
17. C6U G57A  0.117
18. U8A C48U  0.117
19. U7A A30C  0.121
20. C6U A30G  0.128
21. C6U G29C  0.13
22. U8A A30G  0.13
23. C6G U55A  0.13
24. U7G U33A  0.131
25. C6G G27A  0.135
26. U7C A49U  0.135
27. C6U A45G  0.135
28. U7G G29U  0.136
29. U7A C66G  0.146
30. C6U G27U  0.147
31. U8A A49U  0.148
32. C6G U67A  0.15
33. U8A A64U  0.151
34. U7A U33C  0.151
35. C6G U55C  0.156
36. U7A C46U  0.159
37. C6U A64U  0.16
38. C6G G27U  0.161
39. U8A A49C  0.165
40. C6G U55G  0.167
41. U7G G25U  0.17
42. U8A A44G  0.173
43. C6G G27C  0.174
44. U7G G57U  0.175
45. U8A A64C  0.181
46. U7C C38A  0.185
47. C6U U62C  0.188
48. U7A A61C  0.188
49. C6U G56A  0.193
50. C6U A45U  0.194
51. U7A G69C  0.196
52. U7C A47C  0.205
53. C6U A30C  0.205
54. U7C C50A  0.209
55. U8A C50G  0.21
56. U7C C38U  0.211
57. U8A A44C  0.213
58. U7C G57U  0.213
59. U8A A59G  0.215
60. U7G U55G  0.215
61. U7G A31U  0.216
62. U7C G27U  0.222
63. U7C C50G  0.229
64. U7G U67A  0.238
65. C6U A64C  0.238
66. C6U C50A  0.24
67. C6G U20G  0.248
68. U7G G25C  0.253
69. U7C C65U  0.254
70. U7C A39G  0.263
71. U7C A26C  0.275
72. C6U A26C  0.29
73. C6U C50G  0.299
74. C6U G27A  0.309
75. C6U A26G  0.31
76. U7A G69A  0.315
77. U7G G42C  0.316
78. U7A A39G  0.318
79. C6U G57U  0.324
80. U7A C38U  0.329
81. C6G U7A  0.337
82. U7A C37G  0.342
83. C6U G42C  0.342
84. U7A C50U  0.364
85. U8A A49G  0.366
86. C6G U20C  0.368
87. C6U U9C  0.369
88. U7G A39G  0.377
89. C6U G69A  0.379
90. C6U C50U  0.386
91. C6U A11C  0.411
92. U7G A39U  0.421
93. C6G U52A  0.433
94. C6U U9G  0.438
95. U8A C10G  0.44
96. C6G U14C  0.449
97. C6G U53G  0.454
98. U7C A39U  0.465
99. U8A A36U  0.473
100. U7G A28U  0.498
101. U7G A31G  0.503
102. C6U A64G  0.514
103. U7C A11C  0.525
104. C6U A36U  0.54
105. U7C C66U  0.542
106. U8A C12G  0.552
107. U7C G19A  0.559
108. C6U A11U  0.578
109. U7A G19U  0.581
110. U7C A39C  0.583
111. U7A G54U  0.589
112. U7G U9G  0.599
113. U7C A35C  0.612
114. U7G G19A  0.618
115. U8A A11U  0.619
116. U8A C10U  0.643
117. C6U U58G  0.663
118. U7G U14A  0.666
119. U7C A26G  0.667
120. U7C A36C  0.679
121. U7G U9A  0.68
122. U7C G19C  0.683
123. U7C U53G  0.686
124. U7A U53G  0.688
125. C6U U70A  0.699
126. U7G U14C  0.701
127. C6U A36C  0.705
128. U7A G19C  0.711
129. U8A A23C  0.712
130. U8A A36G  0.714
131. U7G U14G  0.729
132. U7C C18G  0.732
133. U7G C12A  0.732
134. U7G C18G  0.739
135. U7G C12U  0.753
136. U7G A35C  0.757
137. C6U U20A  0.764
138. C6U A41G  0.768
139. C6U A23G  0.768
140. U8A A11G  0.772
141. C6U C18G  0.775
142. U7A U58G  0.775
143. C6U A24U  0.781
144. U8A G17U  0.79
145. C6U U52G  0.797
146. C6U U20C  0.806
147. U8A A23G  0.808
148. C6U A11G  0.816
149. C6U C18U  0.82
150. U8A A41C  0.82
151. U8A A41U  0.843
152. U7A G17A  0.865
153. C6U U58C  0.893
154. U7A A23C  0.894
155. U7C C18A  0.973
156. U7A G51A  0.977
157. C6G G34U  0.982
158. U7A U52A  0.992
159. U7C C16U  1
160. U7A U58C  1.02
161. U7C C18U  1.06
162. U7G A71G  1.06
163. U7G C18U  1.07
164. U7G G34U  1.22
165. U7A A41U  1.28
166. U7C U53A  1.3
167. U7G A71C  1.35
